Assay results published in patent publication US20170056327A1 (The Methodist Hospital, priority 2015, published 2017).

How the values were obtained:
[1] = tested on: BRAF, phosphor-BRAF, MEK, phosphor-MEK, ERK, phosphor-ERK in A375 melanoma cells; experiment: Western blot of BRAF pathway proteins after treatment; type: cell-based, human; conditions: delivered by composite with single cargo; siRNA 100 nM, docetaxel 100 nM
Procedure: The size and zeta potential of the particles were measured by the Zetasizer Nano (Malvern Instruments). The SEM characterization was shown on an ultra-high resolution scanning electron microscope (SEM 230, NovaNano, Hillsboro, Oreg., USA). Western blots were performed using standard protocols on 4%-15% Bio-Rad Mini-Protean TGX Precast Gels (Bio-Rad, Hercules, Calif., USA).

[2] = tested on: T1, MMP2 substrate peptide AGFSGPLGMWSAGSFG (SEQ ID NO:1)
T1 sequence: AGFSGPLGMWSAGSFG

[3] = target: MMP2 substrate peptide … (SEQ ID NO:1); experiment: cell-based or functional assay

Sequence of matrix metalloproteinase-2 (MMP-2) enzyme (P08253 110-660): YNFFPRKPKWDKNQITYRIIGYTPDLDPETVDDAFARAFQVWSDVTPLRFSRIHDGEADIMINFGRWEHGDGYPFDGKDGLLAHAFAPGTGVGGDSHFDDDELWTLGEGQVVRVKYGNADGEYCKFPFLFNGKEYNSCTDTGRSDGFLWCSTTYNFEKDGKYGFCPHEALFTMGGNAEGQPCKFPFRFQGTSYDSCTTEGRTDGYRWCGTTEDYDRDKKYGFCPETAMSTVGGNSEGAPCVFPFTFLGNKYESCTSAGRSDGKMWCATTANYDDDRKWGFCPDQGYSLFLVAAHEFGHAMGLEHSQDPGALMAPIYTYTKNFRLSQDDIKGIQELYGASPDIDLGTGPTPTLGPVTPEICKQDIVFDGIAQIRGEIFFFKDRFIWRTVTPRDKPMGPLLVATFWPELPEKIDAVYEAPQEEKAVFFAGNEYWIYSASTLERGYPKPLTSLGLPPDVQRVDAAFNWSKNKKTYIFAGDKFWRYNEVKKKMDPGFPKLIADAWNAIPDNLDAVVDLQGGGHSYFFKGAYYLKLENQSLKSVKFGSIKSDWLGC

Row | cellular uptake in A375 cells of stimuli-release particles (MSV/Peptide NPs) relative to non-stimuli-release particles (MSV/NPs), medium with 2 ug/mL MMP2, 6-hrs' incubation [3] | cellular uptake in A375 cells of stimuli-release particles (MSV/Peptide NPs) relative to non-stimuli-release particles (MSV/NPs), medium with 2 ug/mL MMP2, 24-hrs' incubation [3] | Molecule | effect on protein expression of BRAF pathway [1] | coumarin 6 released into buffer within 6 hrs from MSV/Peptide NPs with MMP2 enzyme (2 ug/mL); without MMP2 cleavage only about 40% was released [2]
1 |  |  | 5′-GCUACAGAGAAAUCUCGAU-3′ (listed as RNA, chemistry not given here) [BRAF siRNA] | knockdown BRAF expression and its related phosphor-proteins downstream | 
2 |  |  | CC(=O)O[C@@]12CO[C@@H]1C[C@H](O)[C@@]1(C)C(=O)[C@H](O)C3=C(C)[C@@H](OC(=O)[C@H](O)[C@@H](NC(=O)OC(C)(C)C)c4ccccc4)C[C@@](O)([C@@H](OC(=O)c4ccccc4)[C@H]21)C3(C)C [docetaxel] | decreased the expression of BRAF, phosphor-BRAF and phosphor-MEK, but increased the expression of phosphor-ERK | 
3 | 1.2 fold | 1.5 fold | matrix metalloproteinase-2 (MMP-2) enzyme |  | about 80% of the coumarin 6 was released
